According to paper PMC2668148:

Tested on: N[C@@H](CCC(=O)Nc1ccc([N+](=O)[O-])cc1)C(=O)O
Test: purified protein
Conditions: apparent constant; hydrolysis

HpGT (Helicobacter pylori gamma-glutamyltranspeptidase) (Helicobacter pylori 26695)
Km: 22.1 ± 1.4 µM
Vmax: 5.18 µmol/min/mg
